# According to patent US20230102339A1 (Eli Lilly, published 2023):
# Read-outs that look alike come from different tables or passages of the source.
# T1: human GIP receptor (hGIPR) (human, UniProt P48546 22-466)
# T1 sequence: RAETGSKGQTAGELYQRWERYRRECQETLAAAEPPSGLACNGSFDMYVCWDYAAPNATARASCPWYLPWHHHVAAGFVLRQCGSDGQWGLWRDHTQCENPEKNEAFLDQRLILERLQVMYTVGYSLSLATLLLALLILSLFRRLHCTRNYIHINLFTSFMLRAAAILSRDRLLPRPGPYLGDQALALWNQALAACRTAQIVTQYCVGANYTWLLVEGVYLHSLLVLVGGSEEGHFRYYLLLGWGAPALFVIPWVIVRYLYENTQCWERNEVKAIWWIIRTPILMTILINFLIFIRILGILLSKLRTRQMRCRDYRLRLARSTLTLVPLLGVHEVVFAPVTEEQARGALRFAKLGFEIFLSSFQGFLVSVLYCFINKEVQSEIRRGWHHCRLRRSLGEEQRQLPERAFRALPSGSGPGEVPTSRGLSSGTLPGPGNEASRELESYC
# What was measured:
# [1] = target: T1, human GIP receptor (hGIPR); experiment: cell-based or functional assay
# [2] = target: T2, human GCG receptor (hGCGR) (human, UniProt P47871 26-477); experiment: radioligand competition binding, SPA, membranes of HEK293 cells overexpressing hGCGR, with bacitracin
# T2 construct: The cAMP assay used HEK-293 clonal cells expressing it; no signal peptide limits are stated; also called glucagon receptor
# T2 sequence (P47871 other isoform, or with tags, fused parts or gaps limits assumed): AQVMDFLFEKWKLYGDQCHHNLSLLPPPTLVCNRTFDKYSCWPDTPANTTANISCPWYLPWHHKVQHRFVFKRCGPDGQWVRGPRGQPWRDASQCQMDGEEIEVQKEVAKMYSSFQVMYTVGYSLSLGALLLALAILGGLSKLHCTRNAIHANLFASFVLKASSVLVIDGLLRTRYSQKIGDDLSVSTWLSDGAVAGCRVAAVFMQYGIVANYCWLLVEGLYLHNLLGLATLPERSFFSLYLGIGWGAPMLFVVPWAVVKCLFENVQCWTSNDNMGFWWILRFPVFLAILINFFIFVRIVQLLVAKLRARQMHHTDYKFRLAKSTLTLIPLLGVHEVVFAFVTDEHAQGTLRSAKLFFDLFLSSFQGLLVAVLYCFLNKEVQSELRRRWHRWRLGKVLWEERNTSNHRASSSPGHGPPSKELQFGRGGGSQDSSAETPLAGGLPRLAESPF
# Experimental: (§1) The assays are performed in the presence of bacitracin as a non-specific blocking agent to prevent acylated moieties of test analogs from binding to protein components used in standard assay buffers (e.g., albumin).
# (§2) Competition curves are plotted as the percent specific inhibition (y-axis) versus log concentration of compound (x-axis) and analyzed using a four-parameter nonlinear regression fit with variable slope (ABase or Genedata).
# [3] = target: T3, human GLP-1 receptor (hGLP-1R) (human, UniProt P43220 24-463); experiment: radioligand competition binding, SPA, membranes of HEK293 cells overexpressing hGLP-1R, with bacitracin
# T3 construct: The cAMP assay used HEK-293 clonal cells expressing it; no signal peptide limits are stated
# Experimental: as §1, §2
# [4] = target: T3, human GLP-1 receptor (hGLP-1R); experiment: cell-based or functional assay
# [5] = target: T1, human GIP receptor (hGIPR); experiment: radioligand competition binding, SPA, membranes of HEK293 cells overexpressing hGIPR, with bacitracin
# Experimental: as §1, §2
# [6] = target: T3, human GLP-1 receptor (hGLP-1R); experiment: cell-based or functional assay; remark: listed apart in the source
# [7] = target: T1, human GIP receptor (hGIPR); experiment: cell-based or functional assay; remark: listed apart in the source
# [8] = target: T2, human GCG receptor (hGCGR); experiment: cell-based or functional assay
# [9] = target: T1, human GIP receptor (hGIPR); experiment: cell-based or functional assay; remark: listed apart in the source
# [10] = target: T2, human GCG receptor (hGCGR); experiment: cell-based or functional assay; remark: listed apart in the source
Molecule,cAMP EC50 (0.1% bovine casein) [1],"cAMP EC50 (0.1% bovine casein, 1.0% human serum albumin) [1]",cAMP Emax (0.1% bovine casein) [1],Ki [2],Ki [3],"cAMP EC50 (0.1% bovine casein, 1.0% human serum albumin) [4]","cAMP Emax (0.1% bovine casein, 1.0% human serum albumin) [4]",Ki [5],cAMP EC50 (0.1% bovine casein) [6],cAMP Emax (0.1% bovine casein) [6],cAMP EC50 (0.1% bovine casein) [7],cAMP Emax (0.1% bovine casein) [7],cAMP EC50 (0.1% bovine casein) [8],cAMP Emax (0.1% bovine casein) [8],"cAMP EC50 (0.1% bovine casein, 1.0% human serum albumin) [9]","cAMP Emax (0.1% bovine casein, 1.0% human serum albumin) [9]","cAMP EC50 (0.1% bovine casein, 1.0% human serum albumin) [10]","cAMP Emax (0.1% bovine casein, 1.0% human serum albumin) [10]"
human GIP(1-42)NH2 (from UniProt P09681 52-93) (ligand),1.08 nM,0.756 nM,98%,,,,,,,,,,,,,,,
"YXQGTXTSDYSILLDXKAQXAFIEYLLEGGPSSGEPPPE (Aib at 2; αMeF(2F) at 6; Orn (O) at 16; K17 conjugated on the epsilon-amino group with 2-[2-(2-amino-ethoxy)-ethoxy]-acetyl-γE-CO-(CH2)18-CO2H; 4Pal at 20; C-terminal amide (E39-NH2), Synthetic acylated 39-residue peptide, obtained as TFA salt) [Example 1 (Incretin Analog 1)]",,,,0.629 nM,4.53 nM,180 nM,102%,0.111 nM,0.345 nM,106%,0.0513 nM,102%,1.2 nM,101%,,,,
"YXQGTXTSDYSIXLDXKAQXAFIEXLLEGGPSSGEPPPS (Aib at 2; αMeF(2F) at 6; αMeL at 13; Orn (O) at 16; K17 conjugated on the epsilon-amino group with 2-[2-(2-amino-ethoxy)-ethoxy]-acetyl-γE-CO-(CH2)18-CO2H; Iva at 20; αMeY at 25; C-terminal amide (S39-NH2), Synthetic acylated 39-residue peptide) [Example 2 (Incretin Analog 2)]",,,,0.95 nM,2.54 nM,119 nM,116%,0.158 nM,,,0.0256 nM,101%,,,2.91 nM,99%,537 nM,112%
"YXQGTXTSDXSIXLDXKAQXXFIXXLLEGGPSSGEPPPS (Aib at 2; αMeF(2F) at 6; 4Pal at 10; αMeL at 13; Orn (O) at 16; K17 conjugated on the epsilon-amino group with 2-[2-(2-amino-ethoxy)-ethoxy]-acetyl-γE-CO-(CH2)18-CO2H; αMeL at 20; Aib at 21; D-glutamic acid (e) at 24; αMeY at 25; C-terminal amide (S39-NH2), Synthetic acylated 39-residue peptide) [Example 3 (Incretin Analog 3)]",,,,1.73 nM,3.63 nM,114 nM,111%,0.114 nM,0.451 nM,107%,0.0306 nM,103%,2.49 nM,99%,3.72 nM,105%,480 nM,97%
